# Results published in patent US11827911B2, “Chimeric bacteriophage lysin with activity against Staphylococci bacteria” (priority 2008, dated 2023).
# B1: ClyS: chimeric lysin: Twort lysin endopeptidase domain attached to the phiNM3 CWT domain, 280 amino acid residues (protein)
# chain: METLKQAESYIKSKVNTGTDFDGLYGYQCMDLAVDYIYHVTDGKIRMWGNAKDAINNSFGGTATVYKNYPAFRPKYGDVVVWTTGNFATYGHIAIVTNPDPYGDLQYVTVLEQNWNGNGIYKTELATIRTHDYTGITHFIRPNFATESSVKKKDTKKKPKPSNRDGLNKDKIVYDRTNINYNMVLQGKSASKITVGSKAPYNLKWSKGAYFNAKIDGLGATSATRYGDNRTNYRFDVGQAVYAPGTLIYVFEIIDGWCRIYWNNHNEWIWHERLIVKEVF
# modifications: Chimeric of Staphylococcus aureus bacteriophage Twort domain and Staphylococcus aureus phage phiNM3 CWT domain
# notes: chimeric lysin: Twort lysin endopeptidase domain attached to the phiNM3 CWT domain, 280 amino acid residues
# How the values were obtained:
# [1] = test system: S. epidermidis including the biofilm-forming strain RP62A; assay: Muralytic activity on bacterial strains, Set II; type: cell-based; conditions: 50 U of ClyS, 15 minutes
# Protocol: (§1) Muralytic activity of ClyS was tested on a number of bacterial strains representing a variety of species which were divided into sets (Table 1 and FIG. 10). Set I consisted of S. aureus strains including methicillin-sensitive S. aureus (MSSA) and MRSA. ClyS was active against MSSA and MRSA although differences were observed between S. aureus strains. Set II consisted of different species of staphylococci including S. epidermidis, S. simulans and S. sciuri. […] Set III consisted of a mix of Gram-positive and Gram-negative bacteria including representatives of group A, B, C and E streptococci, oral streptococcal species including S. gordonli, and S. salivarius, as well as S. uberis, Bacillus cereus, Pseudomonas aeruginosa and E. coli.
# (§2) The viability assay of ClyS was tested as previously described (Nelson et al, 2001). Briefly, log phase cultures of S. aureus strain 8325-4 were resuspended in PB to OD600 of 0.8-1.0. 50 U of ClyS or the corresponding volume of PB was added to bacterial cells and aliquots were removed, serially diluted, and plated at 1, 5, 10, 30, and 60 minutes to assess the viability of the treated and control cells. All experiments were performed in triplicate. The activity of ClyS on various bacterial strains was tested as described previously (Schuch et al, 2002). Briefly, log phase bacterial cells were treated with 50 U of ClyS at 37° C. for 15 minutes. The samples were serially diluted and plated. Control experiments with the addition of phosphate buffer (pH 7.0) were performed under the same conditions.
# [2] = test system: S. simulans; assay: Muralytic activity on bacterial strains, Set II; type: cell-based; conditions: 50 U of ClyS, 15 minutes
# Protocol: as §1, §2
# [3] = test system: S. sciuri; assay: Muralytic activity on bacterial strains, Set II; type: cell-based; conditions: 50 U of ClyS, 15 minutes
# Protocol: as §1, §2
# [4] = test system: MRSA (191-SM^R); assay: In vivo nasal decolonization of MRSA; parameters: species or system C57BL/6J mice; conditions: three hourly intranasal doses of ClyS (960 μg) 24 h post-infection; 1 h after last treatment; p<0.001 vs buffer
# Text: Carriage of both MSSA and MRSA in the human anterior nares is the major reservoir for S. aureus infection. Studies have shown that roughly 80% of the population could be nasally colonized by S. aureus, and that colonization can be an increased risk factor for developing other more serious S. aureus infections (Kluytmans, J., A. van Belkum. 1997. Nasal carriage of Staphylococcus aureus: epidemiology, underlying mechanisms, and associated risks. Clin Microbiol Rev 10(3): 505-20). Elimination of nasal carriage in the community or in the hospital setting thus could possibly reduce the risk of infection and slow the spread of drug resistant S. aureus (Kluytmans et al. (1997)). To study the potential of ClyS to reduce MRSA colonization of the nasal mucosa, C57BL/6J mice were intranasally inoculated with ˜2×10^7 of a spontaneously streptomycin resistant strain of MRSA (191-SM^R). Twenty-four hours post-infection mice were administered three doses hourly of either phosphate buffered saline (control) or ClyS (960 μg) into the nasal passages. One hour after the last treatment, mice were sacrificed and bacteria colonies were enumerated on Spectra MRSA agar, (a selective chromogenic medium developed to diagnostically detect MRSA nasal colonization) and Columbia blood agar. […]
# [5] = test system: S. aureus 8325-4 cells; assay: Transmission electron microscopy of the lytic effect; type: cell-based, Staphylococcus aureus; conditions: 50 U of ClyS for 1-3 min
# Protocol: However, unlike other lysins, the sites of degradation on the cell was not restricted to the septal or polar positions but was randomly distributed.
# S. aureus strain 8325-4 was grown to log-phase, centrifuged and resuspended in PBS to an absorbance at 600 nm of 1.0. The bacterial suspension was incubated with 50 U of ClyS at room temperature. […] The suspension was pelleted by centrifugation and overlaid with 2.5% glutaraldehyde in 0.1 M cacodylate buffer (pH 7.4). The samples were then postfixed in 1% osmium tetroxide, block stained with uranyl acetate and processed according to standard procedures by The Rockefeller University Electron Microscopy Service.
# [6] = test system: S. aureus; assay: Lytic assays of chimeric lysins against S. aureus; type: cell-based, Staphylococcus aureus; conditions: for lytic/killing activity against S. aureus: qualitative
# [7] = test system: MRSA strain MW2; assay: Systemic MRSA infection model, survival; type: in vivo, FVB/NJ mice
# Protocol: In order to assess whether ClyS treatment could prevent death resulting from systemic MRSA infections, 4 week old FVB/NJ mice were intraperitoneally injected with ˜5×10^5 CFU of the community-acquired MRSA strain MW2 in 5% mucin. Preliminary experiments determined that 5×10^5 CFU was 10× the LD100 dose for a twenty-four hour period. Furthermore, within 3 hours of IP injection the MRSA infection was systemic. i.e., MRSA were recovered in high numbers from heart, liver, spleen, and kidney (data not shown). Treatment occurred three hours post-infection, with either 20 mM phosphate buffer or 1 mg of ClyS in 20 mM phosphate buffer injected IP (intraperitoneally). Mice were then monitored for survival over ten days. The results from three independent experiments were combined (ClyS treatment, n=16; buffer treatment, n=14) and the mice survival data plotted with a Kaplan Meier Survival curve (FIG. 12), Within twenty-four hours all of the control mice died of bacterial sepsis, while only 2/16 of ClyS treated mice died at forty-eight hours, and the remaining mice (14/16, 88%) survived over the course of the experiments (FIG. 12).
# To determine if this effect could be seen in our systemic MRSA infection model, FVB/NJ mice were intraperitoneally injected with ˜5×10^5 CFUs of the MRSA strain MW2 as above. Three hours post infection mice were treated in parallel, with a lower IP dose of 130 μg/mouse of ClyS combined with different concentrations of oxacillin (10-100 μg/mouse) or buffer alone controls. Preliminary experiments determined that an ED30 dose of ClyS (130 μg/mouse) had minimal efficacy to evaluate the effect of combinatorial treatment with oxacillin (data not shown). Mice were monitored for survival for 10 days and the results of 5 independent experiments were combined and plotted in a Kaplan Meier Survival curve (FIG. 14).
molecule,measurement,setting,value
B1,muralytic activity against S. epidermidis,[1],active
same,muralytic activity against S. simulans,[2],active
same,muralytic activity against S. sciuri,[3],active
same,mean CFU on the nasal mucosa,[4],1198 CFU/cavity
same,lytic effect seen by transmission electron microscopy,[5],localized degradation of the cell wall
same,activity,[6]; AD 127 from the pAD138 construct,very high
same,lytic/killing activity against S. aureus,[6]; listed as AD 127,very high activity
same,lytic/killing activity against S. aureus,[6]; listed as AD127,little or no killing activity
same,survival,"[7]; 130 μg/mouse of ClyS IP alone, 10 days",30%
same,mice died at forty-eight hours,[7]; 1 mg of ClyS IP three hours post-infection,2/16
same,survival over the course of the experiments,"[7]; 1 mg of ClyS IP three hours post-infection, ten days",88%
same,ED30 dose,"[7]; IP, preliminary experiments",130 μg/mouse
